Two molecules from US20100099619A1 can be followed below.

The target of test [1] is T1, neuropeptide Y2 receptor, P49146.
T1 chain: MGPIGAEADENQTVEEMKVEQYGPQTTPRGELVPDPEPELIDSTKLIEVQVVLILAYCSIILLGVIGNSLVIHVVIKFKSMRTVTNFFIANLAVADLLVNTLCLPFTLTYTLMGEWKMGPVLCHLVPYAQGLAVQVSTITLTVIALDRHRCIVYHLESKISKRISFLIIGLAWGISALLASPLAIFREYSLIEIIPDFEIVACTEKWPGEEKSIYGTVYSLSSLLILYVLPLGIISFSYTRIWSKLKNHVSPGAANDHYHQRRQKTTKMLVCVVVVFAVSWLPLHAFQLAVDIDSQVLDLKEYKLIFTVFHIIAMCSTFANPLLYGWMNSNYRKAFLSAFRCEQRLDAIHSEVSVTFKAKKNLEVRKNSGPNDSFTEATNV
Description: displacement of [125I]-human PYY, SK-N-BE membranes. (In general: In a radioligand displacement assay an active substance lowers the binding of a labelled ligand.)

Test [2] concerns the target T2, neuropeptide Y1 receptor, P25929.
T2 chain: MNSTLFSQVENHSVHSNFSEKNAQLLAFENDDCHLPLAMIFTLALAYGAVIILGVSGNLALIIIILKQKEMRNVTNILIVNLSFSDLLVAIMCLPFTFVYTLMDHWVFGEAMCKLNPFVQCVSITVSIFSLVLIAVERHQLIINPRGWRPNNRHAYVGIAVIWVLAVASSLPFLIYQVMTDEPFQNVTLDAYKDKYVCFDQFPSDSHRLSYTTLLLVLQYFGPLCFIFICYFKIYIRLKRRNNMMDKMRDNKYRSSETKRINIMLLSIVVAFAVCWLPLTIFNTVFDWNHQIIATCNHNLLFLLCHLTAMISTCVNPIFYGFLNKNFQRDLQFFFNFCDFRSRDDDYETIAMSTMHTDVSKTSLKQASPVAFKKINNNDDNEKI
Description: displacement of [125I]-human PYY, SK-N-MC membranes.

Another test addresses neuropeptide Y4 receptor. Description: displacement of [125I]-human PP, Y4-transfected CHO-K1 membranes.
The next test has as its target neuropeptide Y5 receptor. Description: displacement of [125I]-human PYY, Y5-transfected CHO-K1 membranes.

Sequence of neuropeptide Y4 receptor (P50391 whole entry): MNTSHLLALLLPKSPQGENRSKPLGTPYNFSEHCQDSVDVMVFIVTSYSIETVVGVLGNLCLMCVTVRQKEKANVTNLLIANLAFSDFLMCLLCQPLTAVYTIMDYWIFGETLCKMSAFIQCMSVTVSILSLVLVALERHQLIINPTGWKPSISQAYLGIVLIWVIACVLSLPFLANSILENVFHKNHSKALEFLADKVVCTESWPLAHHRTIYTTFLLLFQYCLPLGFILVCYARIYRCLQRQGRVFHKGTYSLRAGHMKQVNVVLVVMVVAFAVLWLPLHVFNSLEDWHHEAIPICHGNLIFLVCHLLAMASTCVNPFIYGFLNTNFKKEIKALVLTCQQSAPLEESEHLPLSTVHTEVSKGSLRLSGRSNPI

For the molecule IAPEAPGEDASPEELAQYAADLRRYINMLTRQRY (modifications not checked) [SEQ ID NO: 477], in test [1], the Y2RBA was determined as 4.4 nM. This molecule returned a Y1RBA in test [2] of 265 nM. This molecule displayed a Y4 RBA with neuropeptide Y4 receptor of 164 nM. In the test with neuropeptide Y5 receptor, the Y5RBA is 18 nM.
YPIAPEAPGEDASPEELAQYAADLRRYINMLTRQRY (modifications not checked) [SEQ ID NO: 476] came in with a Y2RBA in test [1] of 7.4 nM. In test [2], this molecule had a Y1RBA of 27 nM. The molecule also registered a Y4 RBA with neuropeptide Y4 receptor of 53 nM. This molecule yielded a Y5RBA in the test with neuropeptide Y5 receptor of 15 nM.
